Side chains are listed from the residue outwards. Ends that are not written are not given here. hairpin oligonucleotide = not defined here
T1: RAD51 (UniProt Q08297 1-339, limits assumed)
T1 sequence (looked up): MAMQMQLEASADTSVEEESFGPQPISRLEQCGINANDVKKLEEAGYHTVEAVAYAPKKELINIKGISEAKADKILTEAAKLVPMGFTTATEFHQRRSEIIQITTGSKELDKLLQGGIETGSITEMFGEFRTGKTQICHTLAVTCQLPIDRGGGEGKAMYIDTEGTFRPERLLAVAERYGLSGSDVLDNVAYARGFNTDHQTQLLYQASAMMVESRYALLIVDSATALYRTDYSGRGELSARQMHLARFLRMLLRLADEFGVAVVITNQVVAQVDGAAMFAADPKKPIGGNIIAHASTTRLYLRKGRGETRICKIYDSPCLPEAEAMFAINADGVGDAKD

B1: RAD52 bait peptide (mouse RAD52 residues 294-344 with an added C-terminal cysteine), as attached to the targeting vector RAD52-HPRT-NLS (peptide)
peptide: VAAKHAAVLPAPPKHSTPVTAASELLQEKVVFPDNLEENLEMWDLTPDLEDC([sulfo‑SMCC-hairpin oligonucleotide])
modifications: reading uncertain; also: conjugated via oligonucleotide to HPRT targeting DNA
B2: BRC5 negative bait peptide (mouse BRCA2 BRC5 repeat with an added C-terminal cysteine), as attached to the targeting vector BRC5-HPRT-NLS (peptide)
peptide: SSYPVTEDSALAYYTEDSRKTCVRESSLSKGRKWLREQGDKLGTRNTIKIEC([sulfo‑SMCC-hairpin oligonucleotide])
modifications: reading uncertain; also: conjugated via oligonucleotide to HPRT targeting DNA
B3: BRC3 bait peptide (mouse BRCA2 residues 1391-1458 with an added C-terminal cysteine), as attached to the targeting vector BRC3-HPRT-NLS (peptide)
peptide: ERNIKEFNISFQTASGKNTRVSKESLNKSVNIFNRETDELTVISDSLNSKILHGINKDKMHTSSHKKAC([sulfo‑SMCC-hairpin oligonucleotide])
modifications: reading uncertain; also: conjugated via oligonucleotide to HPRT targeting DNA

How the values were obtained:
RAD51 [1] = target: T1, RAD51; test: cell-based or functional assay
RAD51 [2] = target: T1, RAD51; test: cell-based or functional assay; remark: listed apart in the source

Binder	increase in targeted homologous recombination relative to a conventional targeting vector (HPRT, ends not protected) (RAD51 [1]) [fold]	increase of targeted recombination compared with the control vector (HP-HPRT) (RAD51 [1]) [fold]	Fold increase of targeted recombination = ratio of control (HP-HPRT)/ratio of expt. vector (Exp 1, F9 cells) (RAD51 [2]) [fold]	Fold increase of targeted recombination = ratio of control (HP-HPRT)/ratio of expt. vector (Exp 2, F9 cells) (RAD51 [2]) [fold]	Fold increase of targeted recombination = ratio of control (HP-HPRT)/ratio of expt. vector (Exp 4, F9 cells) (RAD51 [2]) [fold]	Fold increase of targeted recombination = ratio of control (HP-HPRT)/ratio of expt. vector (Exp 3, F9 cells) (RAD51 [2]) [fold]	increase in the relative recombination frequency compared to control (HP-HPRT) (RAD51 [1]) [fold]	Fold increase of targeted recombination = ratio of control (HP-HPRT)/ratio of expt. vector (Exp 5, F9 cells) (RAD51 [2]) [fold]
B1	3.5	2.6	2	2.2	2.2	–	–	–
B2	–	–	–	–	–	1.1	–	–
B3	–	–	–	–	2.2	–	1.5	2.3
